Laboratory results published in patent US10543284B2, “Anti-c-Met antibody and anti-c-Met antibody-cytotoxic drug conjugate and pharmaceutical use thereof” (Suzhou Suncadia Biopharmaceuticals Co., Ltd., priority 2015, dated 2020).

Target: T1, cell line MKN45, which overexpresses c-Met (Homo sapiens, UniProt P08581)
T1 construct: host or cells: MKN45
Assay: FACS binding activity with MKN45 cells
Conditions: Table 6
Method: A FACS method was used to detect the binding activity of c-Met humanized antibodies with the cell line MKN45, which overexpresses c-Met. […] The plate was incubated for 1 hour at 4° C. FACS buffer (PBS comprising 2.5% (v/v) FBS (Hyclone, Cat: SH30256.01B)) was added. The plate was centrifuged under 4° C. at 1300 rmp for 4 minutes, and the supernatant was discarded. This procedure was repeated three times. 100 μl of secondary antibodies (Fluorescence labeled goat-anti-mouse secondary antibodies with 1:200 dilution, Biolegend, Cat No. 405307; Fluorescence labeled anti-human secondary antibody with 1:30 dilution, Biolegend, Cat No. 409304) were added to each well, and the plate was incubated for 1 hour at 4° C. FACS buffer was added, the plate was centrifuged under 4° C. at 1300 rpm for 4 minutes, the supernatants were discarded; and this procedure was repeated three times. 200 μl FACS buffer was added to resuspend the cells, and the samples were prepared and detected by flow cytometry (BD FACS Array).

T1 sequence (P08581 25-1390): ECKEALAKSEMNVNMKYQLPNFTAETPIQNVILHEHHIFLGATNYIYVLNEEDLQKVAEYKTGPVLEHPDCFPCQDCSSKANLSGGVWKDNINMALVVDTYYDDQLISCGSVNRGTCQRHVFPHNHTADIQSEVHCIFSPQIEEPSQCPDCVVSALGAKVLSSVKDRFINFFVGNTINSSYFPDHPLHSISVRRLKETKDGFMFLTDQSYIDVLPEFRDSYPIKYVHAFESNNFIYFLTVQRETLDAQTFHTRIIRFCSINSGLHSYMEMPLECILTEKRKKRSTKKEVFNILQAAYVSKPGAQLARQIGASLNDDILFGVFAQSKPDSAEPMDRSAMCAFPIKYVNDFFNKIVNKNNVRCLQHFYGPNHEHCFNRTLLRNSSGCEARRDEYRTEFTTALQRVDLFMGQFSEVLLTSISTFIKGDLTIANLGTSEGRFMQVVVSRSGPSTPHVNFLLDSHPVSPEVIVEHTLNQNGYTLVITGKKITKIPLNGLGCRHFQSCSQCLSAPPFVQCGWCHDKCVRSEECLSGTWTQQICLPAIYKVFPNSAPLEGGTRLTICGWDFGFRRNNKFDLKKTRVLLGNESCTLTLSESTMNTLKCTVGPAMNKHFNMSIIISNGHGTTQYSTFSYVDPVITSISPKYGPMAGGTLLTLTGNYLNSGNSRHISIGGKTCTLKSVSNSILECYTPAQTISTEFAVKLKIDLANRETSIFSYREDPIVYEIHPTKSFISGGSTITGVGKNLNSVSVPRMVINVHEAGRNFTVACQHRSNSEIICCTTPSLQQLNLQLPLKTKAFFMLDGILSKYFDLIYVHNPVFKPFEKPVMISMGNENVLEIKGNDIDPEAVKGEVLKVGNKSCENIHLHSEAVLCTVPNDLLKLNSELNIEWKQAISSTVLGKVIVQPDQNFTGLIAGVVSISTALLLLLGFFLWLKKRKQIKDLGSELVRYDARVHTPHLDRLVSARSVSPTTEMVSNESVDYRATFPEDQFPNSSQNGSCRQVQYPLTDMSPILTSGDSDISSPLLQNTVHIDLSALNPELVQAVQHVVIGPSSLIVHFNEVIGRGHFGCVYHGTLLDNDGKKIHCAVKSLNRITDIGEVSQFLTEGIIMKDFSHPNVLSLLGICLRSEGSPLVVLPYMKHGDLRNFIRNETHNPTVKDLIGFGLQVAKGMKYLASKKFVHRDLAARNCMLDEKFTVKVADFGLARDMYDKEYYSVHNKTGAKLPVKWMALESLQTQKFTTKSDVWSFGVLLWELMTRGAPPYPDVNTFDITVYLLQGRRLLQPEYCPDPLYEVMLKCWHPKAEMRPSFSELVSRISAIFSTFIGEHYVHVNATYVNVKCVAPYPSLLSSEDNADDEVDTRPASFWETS

B1: Ab-9: humanized anti c-Met antibody: heavy chain sequence of SEQ ID NO: 23 and light chain sequence of SEQ ID NO: 26 (antibody)
heavy: QVTLKESGPVLVKPTETLTLTCTVSGFSLPNYGVHWVRQPPGKALEWLAVIWSGGSTNYAAAFVSRLRISKDTSKSQVVFTMNNMDPVDTATYYCARNHDNPYNYAMDYWGQGTTVTVSSASTKGPSVFPLAPCSRSTSESTAALGCLVKDYFPEPVTVSWNSGALTSGVHTFPAVLQSSGLYSLSSVVTVPSSNFGTQTYTCNVDHKPSNTKVDKTVERKCCVECPPCPAPPVAGPSVFLFPPKPKDTLMISRTPEVTCVVVDVSHEDPEVQFNWYVDGVEVHNAKTKPREEQFNSTFRVVSVLTVVHQDWLNGKEYKCKVSNKGLPAPIEKTISKTKGQPREPQVYTLPPSREEMTKNQVSLTCLVKGFYPSDIAVEWESNGQPENNYKTTPPMLDSDGSFFLYSKLTVDKSRWQQGNVFSCSVMHEALHNHYTQKSLSLSPGK
light: DIVLTQSPASLAVSPGQRATITCRANKSVSTSTYNYLHWYQQKPGQPPKLLIYLASNLASGVPARFSGSGSGTDFTLTINPVEANDTANYYCQHSRDLPPTFGQGTKLEIKRTVAAPSVFIFPPSDEQLKSGTASVVCLLNNFYPREAKVQWKVDNALQSGNSQESVTEQDSKDSTYSLSSTLTLSKADYEKHKVYACEVTHQGLSSPVTKSFNRGEC
modifications: Ab-9 heavy chain; Ab-9 light chain
EC50: 1.6 nM
